Source: article PMC6751238, “The first fungal laccase with an alkaline pH optimum obtained by directed evolution and its application in indigo dye decolorization” (AMB Express, 2019)

Columns and labels:
purified protein [1] = substrate: COc1ccccc1O; experiment: purified protein
purified protein [2] = substrate: COc1cccc(OC)c1O; experiment: purified protein; format: biochemical, Coprinopsis cinerea
[3] = pH 6.5, 70 °C as printed in table (text says 60 °C), pH 6.5
[4] = PIE5, pH 8.5, 60 °C, pH 8.5, 60.0 °C

B1: rLcc9 (Coprinopsis cinerea okayama7#130; E116K/I393T) (protein)
chain: QILGPTSTMTVSNIDASPDGFNRPVVAVNGQHPGPLVRANKGDNFRINVVNDLNDPTMLRQTSVHWHGVFQHGTAWADGPDGVTQCPIAQNGESFKYRFNAGNEAGTFWYHSHFGTQYCDGLRGPLVIYDPNDPHRNLYDVDNADTVITLVDWYHLQAPSIEGPALSDATLINGKGRRPGGPETDIAIVNVQRNRRYRFRLVSMSCDPNYKFSIDGHKLTVIEADGQLTEPLMVDEIQIFAGQRYSFVLSANRPVGNYWIRAIPNVGSNNLPNFSSGGINSAILRYAGAPNANPTSTPVTNPVALHESNLHALLNPGAPGGSGPADENIVLQMGLGPAGFEINGVTWANPDSPVMVQIMNGVPPADIVPSGATHTLPRNRVVEVSIPGFELAGPHPFHLHGHAFSVVRSAGSSTYNYENPVRRDVVDVGGASDNVTIRFTTDNPGPWFFHCHIEFHLVLGLAMVFMEAPSDIPSTSPPPPSWSELCPKFESLPASATSIQIVPTP
With B1 the Km (purified protein [1]; pH 6.5, 60 °C, pH 6.5, 60.0 °C) was 110 µM, the kcat (purified protein [1]; pH 6.5, 60 °C, pH 6.5, 60.0 °C) was 46 s⁻¹ and the kcat/Km (purified protein [1]; pH 6.5, 60 °C, pH 6.5, 60.0 °C) was 390000 M⁻¹ s⁻¹.

B2: rLcc9 (Coprinopsis cinerea okayama7#130; I393T/N229D) (protein)
chain: QILGPTSTMTVSNIDASPDGFNRPVVAVNGQHPGPLVRANKGDNFRINVVNDLNDPTMLRQTSVHWHGVFQHGTAWADGPDGVTQCPIAQNGESFEYRFNAGNEAGTFWYHSHFGTQYCDGLRGPLVIYDPNDPHRNLYDVDNADTVITLVDWYHLQAPSIEGPALSDATLINGKGRRPGGPETDIAIVNVQRNRRYRFRLVSMSCDPDYKFSIDGHKLTVIEADGQLTEPLMVDEIQIFAGQRYSFVLSANRPVGNYWIRAIPNVGSNNLPNFSSGGINSAILRYAGAPNANPTSTPVTNPVALHESNLHALLNPGAPGGSGPADENIVLQMGLGPAGFEINGVTWANPDSPVMVQIMNGVPPADIVPSGATHTLPRNRVVEVSIPGFELAGPHPFHLHGHAFSVVRSAGSSTYNYENPVRRDVVDVGGASDNVTIRFTTDNPGPWFFHCHIEFHLVLGLAMVFMEAPSDIPSTSPPPPSWSELCPKFESLPASATSIQIVPTP
B2 was tested, and the Km (purified protein [1]; pH 8.0, 60 °C, pH 8.0, 60.0 °C) was 340 µM, the kcat (purified protein [1]; pH 8.0, 60 °C, pH 8.0, 60.0 °C) was 82.5 s⁻¹ and the kcat/Km (purified protein [1]; pH 8.0, 60 °C, pH 8.0, 60.0 °C) was 230000 M⁻¹ s⁻¹.

B3: rLcc9 (Coprinopsis cinerea okayama7#130) (protein)
chain: QILGPTSTMTVSNIDASPDGFNRPVVAVNGQHPGPLVRANKGDNFRINVVNDLNDPTMLRQTSVHWHGVFQHGTAWADGPDGVTQCPIAQNGESFEYRFNAGNEAGTFWYHSHFGTQYCDGLRGPLVIYDPNDPHRNLYDVDNADTVITLVDWYHLQAPSIEGPALSDATLINGKGRRPGGPETDIAIVNVQRNRRYRFRLVSMSCDPNYKFSIDGHKLTVIEADGQLTEPLMVDEIQIFAGQRYSFVLSANRPVGNYWIRAIPNVGSNNLPNFSSGGINSAILRYAGAPNANPTSTPVTNPVALHESNLHALLNPGAPGGSGPADENIVLQMGLGPAGFEINGVTWANPDSPVMVQIMNGVPPADIVPSGAIHTLPRNRVVEVSIPGFELAGPHPFHLHGHAFSVVRSAGSSTYNYENPVRRDVVDVGGASDNVTIRFTTDNPGPWFFHCHIEFHLVLGLAMVFMEAPSDIPSTSPPPPSWSELCPKFESLPASATSIQIVPTP
notes: lcc9 cDNA in pPIC9K (EcoRI/NotI), secreted from Pichia pastoris GS115, purified (DEAE-Sepharose); PIE5 = E116K/N229D/I393T
B3 was tested, and the Km (purified protein [1]; [3]) was 90 µM, the kcat (purified protein [1]; [3]) was 22.8 s⁻¹ and the kcat/Km (purified protein [1]; [3]) was 250000 M⁻¹ s⁻¹. It also gave a Km (purified protein [2]; pH 6.5, 60 °C) of 2300 µM, a kcat (purified protein [2]; pH 6.5, 60 °C) of 69.4 s⁻¹ and a kcat/Km (purified protein [2]; pH 6.5, 60 °C) of 30000 M⁻¹ s⁻¹.

B4: rLcc9 (Coprinopsis cinerea okayama7#130; E116K/I393T/N229D) (protein)
chain: QILGPTSTMTVSNIDASPDGFNRPVVAVNGQHPGPLVRANKGDNFRINVVNDLNDPTMLRQTSVHWHGVFQHGTAWADGPDGVTQCPIAQNGESFKYRFNAGNEAGTFWYHSHFGTQYCDGLRGPLVIYDPNDPHRNLYDVDNADTVITLVDWYHLQAPSIEGPALSDATLINGKGRRPGGPETDIAIVNVQRNRRYRFRLVSMSCDPDYKFSIDGHKLTVIEADGQLTEPLMVDEIQIFAGQRYSFVLSANRPVGNYWIRAIPNVGSNNLPNFSSGGINSAILRYAGAPNANPTSTPVTNPVALHESNLHALLNPGAPGGSGPADENIVLQMGLGPAGFEINGVTWANPDSPVMVQIMNGVPPADIVPSGATHTLPRNRVVEVSIPGFELAGPHPFHLHGHAFSVVRSAGSSTYNYENPVRRDVVDVGGASDNVTIRFTTDNPGPWFFHCHIEFHLVLGLAMVFMEAPSDIPSTSPPPPSWSELCPKFESLPASATSIQIVPTP
notes: as for B3
Work on B4 yielded a Km (purified protein [1]; [4]) of 330 µM, a kcat (purified protein [1]; [4]) of 62.9 s⁻¹ and a kcat/Km (purified protein [1]; [4]) of 180000 M⁻¹ s⁻¹. It also gave a Km (purified protein [2]; PIE5, pH 8.0, 60 °C) of 5700 µM, a kcat (purified protein [2]; PIE5, pH 8.0, 60 °C) of 43.5 s⁻¹ and a kcat/Km (purified protein [2]; PIE5, pH 8.0, 60 °C) of 7500 M⁻¹ s⁻¹.

B5: rLcc9 (Coprinopsis cinerea okayama7#130; E116K) (protein)
chain: QILGPTSTMTVSNIDASPDGFNRPVVAVNGQHPGPLVRANKGDNFRINVVNDLNDPTMLRQTSVHWHGVFQHGTAWADGPDGVTQCPIAQNGESFKYRFNAGNEAGTFWYHSHFGTQYCDGLRGPLVIYDPNDPHRNLYDVDNADTVITLVDWYHLQAPSIEGPALSDATLINGKGRRPGGPETDIAIVNVQRNRRYRFRLVSMSCDPNYKFSIDGHKLTVIEADGQLTEPLMVDEIQIFAGQRYSFVLSANRPVGNYWIRAIPNVGSNNLPNFSSGGINSAILRYAGAPNANPTSTPVTNPVALHESNLHALLNPGAPGGSGPADENIVLQMGLGPAGFEINGVTWANPDSPVMVQIMNGVPPADIVPSGAIHTLPRNRVVEVSIPGFELAGPHPFHLHGHAFSVVRSAGSSTYNYENPVRRDVVDVGGASDNVTIRFTTDNPGPWFFHCHIEFHLVLGLAMVFMEAPSDIPSTSPPPPSWSELCPKFESLPASATSIQIVPTP
B5 was tested, and the Km (purified protein [1]; pH 6.5, 60 °C, pH 6.5, 60.0 °C) was 320 µM, the kcat (purified protein [1]; pH 6.5, 60 °C, pH 6.5, 60.0 °C) was 85.8 s⁻¹ and the kcat/Km (purified protein [1]; pH 6.5, 60 °C, pH 6.5, 60.0 °C) was 250000 M⁻¹ s⁻¹.

B6: rLcc9 (Coprinopsis cinerea okayama7#130; N229D) (protein)
chain: QILGPTSTMTVSNIDASPDGFNRPVVAVNGQHPGPLVRANKGDNFRINVVNDLNDPTMLRQTSVHWHGVFQHGTAWADGPDGVTQCPIAQNGESFEYRFNAGNEAGTFWYHSHFGTQYCDGLRGPLVIYDPNDPHRNLYDVDNADTVITLVDWYHLQAPSIEGPALSDATLINGKGRRPGGPETDIAIVNVQRNRRYRFRLVSMSCDPDYKFSIDGHKLTVIEADGQLTEPLMVDEIQIFAGQRYSFVLSANRPVGNYWIRAIPNVGSNNLPNFSSGGINSAILRYAGAPNANPTSTPVTNPVALHESNLHALLNPGAPGGSGPADENIVLQMGLGPAGFEINGVTWANPDSPVMVQIMNGVPPADIVPSGAIHTLPRNRVVEVSIPGFELAGPHPFHLHGHAFSVVRSAGSSTYNYENPVRRDVVDVGGASDNVTIRFTTDNPGPWFFHCHIEFHLVLGLAMVFMEAPSDIPSTSPPPPSWSELCPKFESLPASATSIQIVPTP
notes: as for B3
Work on B6 yielded a Km (purified protein [1]; pH 8.0, 60 °C, pH 8.0, 60.0 °C) of 370 µM, a kcat (purified protein [1]; pH 8.0, 60 °C, pH 8.0, 60.0 °C) of 87.3 s⁻¹ and a kcat/Km (purified protein [1]; pH 8.0, 60 °C, pH 8.0, 60.0 °C) of 230000 M⁻¹ s⁻¹. For the same protein, the Km (purified protein [2]; pH 8.0, 60 °C) was 2600 µM, the kcat (purified protein [2]; pH 8.0, 60 °C) was 66.2 s⁻¹ and the kcat/Km (purified protein [2]; pH 8.0, 60 °C) was 25000 M⁻¹ s⁻¹.

B7: rLcc9 (Coprinopsis cinerea okayama7#130; I393T) (protein)
chain: QILGPTSTMTVSNIDASPDGFNRPVVAVNGQHPGPLVRANKGDNFRINVVNDLNDPTMLRQTSVHWHGVFQHGTAWADGPDGVTQCPIAQNGESFEYRFNAGNEAGTFWYHSHFGTQYCDGLRGPLVIYDPNDPHRNLYDVDNADTVITLVDWYHLQAPSIEGPALSDATLINGKGRRPGGPETDIAIVNVQRNRRYRFRLVSMSCDPNYKFSIDGHKLTVIEADGQLTEPLMVDEIQIFAGQRYSFVLSANRPVGNYWIRAIPNVGSNNLPNFSSGGINSAILRYAGAPNANPTSTPVTNPVALHESNLHALLNPGAPGGSGPADENIVLQMGLGPAGFEINGVTWANPDSPVMVQIMNGVPPADIVPSGATHTLPRNRVVEVSIPGFELAGPHPFHLHGHAFSVVRSAGSSTYNYENPVRRDVVDVGGASDNVTIRFTTDNPGPWFFHCHIEFHLVLGLAMVFMEAPSDIPSTSPPPPSWSELCPKFESLPASATSIQIVPTP
notes: as for B3
For B7, the Km (purified protein [1]; pH 7.0, 60 °C, pH 7.0, 60.0 °C) was 140 µM, the kcat (purified protein [1]; pH 7.0, 60 °C, pH 7.0, 60.0 °C) was 83.9 s⁻¹ and the kcat/Km (purified protein [1]; pH 7.0, 60 °C, pH 7.0, 60.0 °C) was 570000 M⁻¹ s⁻¹. It also gave a Km (purified protein [2]; pH 7.0, 60 °C) of 1200 µM, a kcat (purified protein [2]; pH 7.0, 60 °C) of 49.2 s⁻¹ and a kcat/Km (purified protein [2]; pH 7.0, 60 °C) of 38000 M⁻¹ s⁻¹.

B8: rLcc9 (Coprinopsis cinerea okayama7#130; E116K/N229D) (protein)
chain: QILGPTSTMTVSNIDASPDGFNRPVVAVNGQHPGPLVRANKGDNFRINVVNDLNDPTMLRQTSVHWHGVFQHGTAWADGPDGVTQCPIAQNGESFKYRFNAGNEAGTFWYHSHFGTQYCDGLRGPLVIYDPNDPHRNLYDVDNADTVITLVDWYHLQAPSIEGPALSDATLINGKGRRPGGPETDIAIVNVQRNRRYRFRLVSMSCDPDYKFSIDGHKLTVIEADGQLTEPLMVDEIQIFAGQRYSFVLSANRPVGNYWIRAIPNVGSNNLPNFSSGGINSAILRYAGAPNANPTSTPVTNPVALHESNLHALLNPGAPGGSGPADENIVLQMGLGPAGFEINGVTWANPDSPVMVQIMNGVPPADIVPSGAIHTLPRNRVVEVSIPGFELAGPHPFHLHGHAFSVVRSAGSSTYNYENPVRRDVVDVGGASDNVTIRFTTDNPGPWFFHCHIEFHLVLGLAMVFMEAPSDIPSTSPPPPSWSELCPKFESLPASATSIQIVPTP
Work on B8 yielded a Km (purified protein [1]; pH 8.0, 60 °C, pH 8.0, 60.0 °C) of 340 µM, a kcat (purified protein [1]; pH 8.0, 60 °C, pH 8.0, 60.0 °C) of 75.4 s⁻¹ and a kcat/Km (purified protein [1]; pH 8.0, 60 °C, pH 8.0, 60.0 °C) of 210000 M⁻¹ s⁻¹.
